According to US20250064890A1, “PROTEIN COMPOSITIONS FOR THE TREATMENT OF INFLAMMATORY DISEASES” (Unichem Laboratories Limited, priority 2021, published 2025):

What was measured:
[1] = tested on: oral (buccal) mucosa cells (TR146); assay: Restoration of mitochondrial membrane potential (JC-1) against 5-FU induced damage; type: cell-based, human; details: for MMP: mitochondrial membrane potential, red/green JC-1 fluorescence ratio
Method: Oral buccal mucosal cells (TR146) were incubated overnight in 5% CO2 incubator at 37° C. for 24 h. […] After 24 h of treatment, cells were exposed to damage (5-FU 5 mM) for 1.25 h for chemotherapy induced inflammation and exposed to gamma radiation (3.5 kGy) using Cobalt 60 for radiation induced inflammation. After the exposure, the anti-apoptotic effect of SEQ ID NO 2 was determined by restoration of mitochondrial membrane depolarization by JC-1 staining and reduction in apoptotic cell populations (Annexin positive and subG0/G1 cells in cell cycle analysis).
After incubation, the supernatants were discarded and 100 μl of JC1-dye solution (prepared by diluting 1 mM DMSO stock into 10 μM in 1×PBS) was added to each well. The cells were then incubated with the dye in CO2 incubator at 37° C. for 15 min, after which the supernatant was removed, and the cells were washed twice with 1×PBS. 100 μl of 1×PBS was finally added to each well. Red fluorescence (excitation 550 nm, emission 600 nm) and green fluorescence (excitation 485 nm, emission 535 nm) were measured using Biotek Synergy HT plate reader. The mitochondrial membrane potential (Δψm) was calculated as the ratio of intensity of red fluorescence to intensity of green fluorescence.
The percentage increase/restoration in mitochondrial membrane potential (MMP) was calculated as: % Increase=[(R−X)/R]*100 • Where, X=Δψm corresponding to TI+5-FU treated cells or TI+radiation treated cells; R=Δψm corresponding to control cells (FU damaged or Radiation damaged alone)

CCL-2 = assay: Multiplex analysis, radiotherapy, TR146; type: cell-based, human
Method: (§1) Oral buccal mucosal cells (TR146) cells were incubated overnight at 37° C. in 5% CO2 incubator. […] The cells were then stimulated with 5-FU (10 mM) for another 24h for chemotherapy and with gamma radiation (3.5 kGy) using Cobalt 60 for radiotherapy. After 24 h, cell culture supernatants were collected from each well and stored at −20° C. till multiplex analysis. For NF-kB estimations, cell lysates were prepared. Levels of biomarkers were estimated using Magpix® multiplex machine. The cells treated with Amifostine (along with 5-FU or radiation) were considered as positive control (PC). Untreated cells (5-FU or radiation alone treated) were used as negative control (NC).
(§2) The percent modulation in each sample was determined as follows:
(§3) [{Concentration of biomarkers (pg/ml) in Control cells (5-FU or radiation alone treated)−Concentration of biomarkers (pg/ml) in SEQ ID NO: 2+5-FU or radiation treated cells)}/Concentration of biomarkers (pg/ml) in Control cells (5-FU or radiation alone treated)]*100

IL-1β = assay: Multiplex analysis, radiotherapy, TR146; type: cell-based, human
Method: as §1, §2, §3

MMP-3 = assay: Multiplex analysis, radiotherapy, TR146; type: cell-based, human
Method: as §1, §2, §3

MMP-8 = assay: Multiplex analysis, radiotherapy, TR146; type: cell-based, human
Method: as §1, §2, §3

RAGE = assay: Multiplex analysis, radiotherapy, TR146; type: cell-based, human
Method: as §1, §2, §3

VEGF = assay: Multiplex analysis, radiotherapy, TR146; type: cell-based, human
Method: as §1, §2, §3

[2] = tested on: 5-Fluorouracil induced OM; assay: Mucositis severity score, 5-FU induced OM in hamsters; type: in vivo, golden Syrian hamsters; details: for Mucositis score: after 12 days, scale 0-5
Method: (§4) To induce OM, animals were administered (except normal control) 5-Fluorouracil (5-FU) by intraperitoneal route at doses of 60 mg/kg & 40 mg/kg respectively on first two days. On Day 4, under anesthesia, with aim of enhancing OM, mechanical irritation of the oral mucosa were done using wire brush. Treatment was initiated from Day 4 to Day 12. For group 3 animals 100 μl of vehicle comprising of standard drug Dexamethasone at 0.1 mg was instilled in buccal cheek pouch. For group 4, 5 and 6 animals 100 μl of vehicle comprising of SEQ ID NO. 2 at 0.25 mg, 0.5 mg & 1 mg, respectively was instilled in buccal cheek pouch. At the end of treatment period, cheek pouch of the hamsters was exposed, Mucositis scoring was carried out and images were captured. The animals were then humanely sacrificed, cheek pouch/jugular mucosa were isolated and used for biomarker estimation and histopathological investigation by using ELISA method and Hematoxylin and Eosin (H&E) staining, respectively.
Mucositis severity was scored as given below: • Cheek pouch completely healthy—0; Mild erythema—1; • Severe erythema and superficial erosion—2; Formation of ulcers in one or more places—3; Cumulative ulcer formation about 50% of cheek pouch surface area—4; Complete ulceration of the cheek pouch mucosa—5.

[3] = tested on: 5-Fluorouracil induced OM; assay: Histopathology score of cheek pouch, 5-FU induced OM in hamsters; type: in vivo, golden Syrian hamsters; details: for Histopathology score, Mean: scale 1-5
Method: as §4
For histopathology the oral mucosa tissues were sectioned 5 μm thickness and stained with hematoxylin-eosin staining. For study histopathological the sections were analyzed by light microscopy.
The pouch/jugular mucosa were observed and scored for infiltration of inflammatory cells, vasodilatation, presence of hemorrhagic areas, edema, ulcerations, and abscesses.

[4] = 0.01 μg/ml + Radiation (3.5 kGy)
[5] = 0.1 μg/ml + Radiation (3.5 kGy)
[6] = hamsters suffering from OM, in words

B1: SEQ ID NO 2: recombinant lectin, variant of the S. rolfsii lectin amino acid sequence (reported as Rec-2 in WO 2010/095143) (protein)
chain: TYKITVRVYQTNPDAFFHPVEKTVWKYANGGTWTITDDQHVLTMGGSGTSGTLRFHADNGESFTATFGVHNYKRWCDIVTNLAADETGMVINQQYYSQKNREEARERQLSNYQVKNAKGRNFQIVYTEAEGNDLHANLIIG
[1]; 0.01 μg/ml + 5FU
  % Increase in MMP (with respect to control): about 67%
  MMP: 14.1
[1]; 0.1 μg/ml + 5FU
  % Increase in MMP (with respect to control): 67.5%
  MMP: 14.2
[1]; 1 μg/ml + 5FU
  % Increase in MMP (with respect to control): 81.5%
  MMP: 15.4
[1]; 10 μg/ml + 5FU
  % Increase in MMP (with respect to control): 79.6%
  MMP: 15.2
[1]; 25 μg/ml + 5FU
  % Increase in MMP (with respect to control): 104.8%
  MMP: 17.3
[1]; 50 μg/ml + 5FU
  MMP: 17.8
[1]; 100 μg/ml + 5FU
  % Increase in MMP (with respect to control): 106.2%
  MMP: 17.5
CCL-2; [4]
  Percentage Inhibition CCL-2: 0.1%
CCL-2; [5]
  Percentage Inhibition CCL-2: 23.1%
CCL-2; 1 μg/ml + Radiation (3.5 kGy)
  Percentage Inhibition CCL-2: 23.1%
CCL-2; 10 μg/ml + Radiation (3.5 kGy)
  Percentage Inhibition CCL-2: 23.1%
CCL-2; 25 μg/ml + Radiation (3.5 kGy)
  Percentage Inhibition CCL-2: 0%
CCL-2; radiation, in words
  CCL-2 against radiation induced levels: downregulation
IL-1β; [4]
  Percentage Inhibition IL-1β: −17.3%
IL-1β; [5]
  Percentage Inhibition IL-1β: −15.1%
IL-1β; 1 μg/ml + Radiation (3.5 kGy)
  Percentage Inhibition IL-1β: −11.5%
IL-1β; 10 μg/ml + Radiation (3.5 kGy)
  Percentage Inhibition IL-1β: −44.8%
IL-1β; 25 μg/ml + Radiation (3.5 kGy)
  Percentage Inhibition IL-1β: −97.1%
MMP-3; [4]
  Percentage Inhibition MMP-3: 42.8%
MMP-3; [5]
  Percentage Inhibition MMP-3: 51.9%
MMP-3; 1 μg/ml + Radiation (3.5 kGy)
  Percentage Inhibition MMP-3: 47.4%
MMP-3; 10 μg/ml + Radiation (3.5 kGy)
  Percentage Inhibition MMP-3: 47.4%
MMP-3; 25 μg/ml + Radiation (3.5 kGy)
  Percentage Inhibition MMP-3: 28.8%
MMP-3; radiation, in words
  MMP-3 against radiation induced levels: downregulation
MMP-8; [4]
  Percentage Inhibition MMP-8: 1.8%
MMP-8; [5]
  Percentage Inhibition MMP-8: 13.9%
MMP-8; 1 μg/ml + Radiation (3.5 kGy)
  Percentage Inhibition MMP-8: 11%
MMP-8; 10 μg/ml + Radiation (3.5 kGy)
  Percentage Inhibition MMP-8: 8.5%
MMP-8; 25 μg/ml + Radiation (3.5 kGy)
  Percentage Inhibition MMP-8: 7.6%
MMP-8; radiation, in words
  MMP-8 against radiation induced levels: downregulation
RAGE; [4]
  Percentage Inhibition RAGE: 38.8%
RAGE; [5]
  Percentage Inhibition RAGE: 42.6%
RAGE; 1 μg/ml + Radiation (3.5 kGy)
  Percentage Inhibition RAGE: 47.6%
RAGE; 10 μg/ml + Radiation (3.5 kGy)
  Percentage Inhibition RAGE: 53.5%
RAGE; 25 μg/ml + Radiation (3.5 kGy)
  Percentage Inhibition RAGE: 39.1%
RAGE; radiation, in words
  RAGE against radiation induced levels: downregulation
VEGF; [4]
  Percentage Inhibition VGEF: 0.9%
VEGF; [5]
  Percentage Inhibition VGEF: −8.1%
VEGF; 1 μg/ml + Radiation (3.5 kGy)
  Percentage Inhibition VGEF: 8.4%
VEGF; 10 μg/ml + Radiation (3.5 kGy)
  Percentage Inhibition VGEF: 23.3%
VEGF; 25 μg/ml + Radiation (3.5 kGy)
  Percentage Inhibition VGEF: 29.7%
VEGF; radiation, in words
  VEGF against radiation induced levels: downregulation
[2]; G4, 0.25 mg/animal
  Mucositis score: 3.00±0.4
[2]; G5, 0.5 mg/animal
  Mucositis score: 2.8±0.3
[2]; G6, 1 mg/animal
  Mucositis score: 4.00±0.3
[2]; [6]
  mucositis score as compared to the untreated subjects: reduction
[3]; G4, 0.25 mg/Animal
  Histopathology score, Mean: 3
[3]; G5, 0.5 mg/Animal
  Histopathology score, Mean: 2
[3]; G6, 1 mg/Animal
  Histopathology score, Mean: 2.8
[3]; [6]
  histology score as compared to the untreated subjects: reduction
